Reference: patent CN113004395A (JIANGSU PROVINCIAL CENTER FOR DISEASE CONTROL AND …, dated 2021)
Residue numbers refer to the chain shown, from its start.

B1: JS06 (antibody, V domains shown)
VH: EVQLLESGGGVVQPGRSLRLSCAASGFTFSSYGMHWVRQAPGKGLEWVAVIWYDGSNKYYADSVKGRFTISRDNSKNTLYLQMNSLRAEDTAVYYCARAAYGPYYGMDVWGQGTTVTVSS
VL: not shown
B2: JS05 (antibody, V domains shown)
VH: EVQLLESGGGVVQPGRSLRLSCAASGFIFSSYGMHWVRQAPGKGLEWVAVIWYDGSNKYYADSVKGRFTISRDNSKNTLYLQMNSLRAEDTAVYYCARDLRGPTGWTFDYWGQGTLVTVSS
VL: ENVLTQSPATLSLSPGERATLSCRASQSVSNYLAWYQQRPGQAPRLLIYDSSNRATGIPARFSGSGSGTDFTLTISSLEPEDFAVYYCQHRSNWKITFGQGTRLEIK
B3: JS12 (antibody, V domains shown)
VH: EVQLLESGGGVVQPGRSLRLSCAASGFTFSSYGMHWVRQAPGKGLEWVAVIWYDGSNKYYADSVKGRFTISRDNSKNTLYLQMNSLRAEDTAVYYCARDGSGSYYWGSLDYWGQGTLVTVSS
VL: B2 VL with N31S, R39K, D50G, S51A, H90Q, K95P, I96W, R103K, L104V
B4: JS13 (antibody, V domains shown)
VH: QVQLVQSGAEVKKPGSSVKVSCKASGGTFSSYAISWVRQAPGQGLEWMGGIIPIFGTANYAQKFQGRVTITADESTSTAYMELSSLRSEDTAVYYCARGGWVICSSTSCYTKYSYYGMDVWGQGTTVTVSS
VL: QSVLTQPPSVSAAPGQKVTISCSGSSSNIGNNYVSWYQQLPGTAPKLLIYDNNKRPSGIPDRFSGSKSGTSATLGITGLQTGDEADYYCGTWDSSLIARLFGGGTKLTVL
B5: JS11 (antibody, V domains shown)
VH: EVQLLESGGGVVQPGRSLRLSCAASGFTFSSYGMHWVRQAPGKGLEWVAVIWYDGSNKYYADSVKGRFTISRDNSKNTLYLQMNSLRAEDTAVYYCVGPLMVRGVIIPWGQGTLVTVSS
VL: not shown
B6: JS14 (antibody, V domains shown)
VH: B3 VH
VL: not shown
B7: JS01 (antibody, V domains shown)
VH: QVQLVESGAEVKKPGSSVKVSCKASGGTFSSYAISWVRQAPGQGLEWMGGIIPIFGTANYAQKFQGRVTITADESTSTAYMELSSLRSEDTAVYYCARGGWRSSGYHDYSYYGMDVWGQGTTVTVSS
VL: not shown
B8: JS08 (antibody, V domains shown)
VH: QVQLVQSGPGLVKPSETLSLTCTVSGGSISSYYWSWIRQPPGKGLEWIGNIYYSGSTDYNPSLKSRVTISVDTSKNQFSLRLSSVTAADTAVYYCAREQFSGGDYEGFDFWGQGTLVTVSS
VL: QSVLTQEPSVSGAPGQRVTISCTGSSSNIGAGYDVHWYQQLPGTAPKLLIYGNSNRPSGVPDRFSGSKSGTSASLAITGLQAEDEADYYCQSYDSSLSGWVFGGGTKLTVL

Experiments:
重组SARS-CoV2核蛋白(NP) [1] = target: 重组SARS-CoV2核蛋白(NP) (SARS-CoV-2, UniProt P0DTC9 1-419)
重组SARS-CoV2核蛋白(NP) [2] = target: T1, 重组SARS-CoV2核蛋白(NP) (SARS-CoV-2, UniProt P0DTC9 1-419); test: double-antibody sandwich lateral-flow strip, paired with JS08
重组SARS-CoV2核蛋白(NP) [3] = target: T1, 重组SARS-CoV2核蛋白(NP); remark: listed apart in the source

Binder	Kd (重组SARS-CoV2核蛋白(NP) [1])	koff (重组SARS-CoV2核蛋白(NP) [1])	kon (重组SARS-CoV2核蛋白(NP) [1])	检测限 (detection limit for NP) (重组SARS-CoV2核蛋白(NP) [2])	Kd (重组SARS-CoV2核蛋白(NP) [3])	koff (重组SARS-CoV2核蛋白(NP) [3])	kon (重组SARS-CoV2核蛋白(NP) [3])
B1	16.1 nM	0.00258 s⁻¹	161000 M⁻¹ s⁻¹	–	–	–	–
B2	–	–	–	< 2 ng/mL	0.409 nM	0.000243 s⁻¹	594000 M⁻¹ s⁻¹
B3	–	–	–	< 2 ng/mL	0.15 nM	7.33e-05 s⁻¹	488000 M⁻¹ s⁻¹
B4	–	–	–	< 2 ng/mL	0.12 nM	9.66e-05 s⁻¹	805000 M⁻¹ s⁻¹
B5	–	–	–	–	0.292 nM	5.62e-05 s⁻¹	193000 M⁻¹ s⁻¹
B6	–	–	–	< 2 ng/mL	0.178 nM	0.000221 s⁻¹	1.24e+06 M⁻¹ s⁻¹
B7	–	–	–	< 2 ng/mL	0.22 nM	0.000479 s⁻¹	2.18e+06 M⁻¹ s⁻¹
B8	0.19 nM	5.77e-06 s⁻¹	30300 M⁻¹ s⁻¹	–	–	–	–
